Experimental data taken from patent publication US20150093336A1 (VIB VZW, published 2015).

T1: Recombinant human MMR (R&D systems) (human, UniProt P22897 19-1383)
T1 construct: Antigen of the PE-ELISA and the SPR; also called hMMR; recombinant hMMR
T1 sequence: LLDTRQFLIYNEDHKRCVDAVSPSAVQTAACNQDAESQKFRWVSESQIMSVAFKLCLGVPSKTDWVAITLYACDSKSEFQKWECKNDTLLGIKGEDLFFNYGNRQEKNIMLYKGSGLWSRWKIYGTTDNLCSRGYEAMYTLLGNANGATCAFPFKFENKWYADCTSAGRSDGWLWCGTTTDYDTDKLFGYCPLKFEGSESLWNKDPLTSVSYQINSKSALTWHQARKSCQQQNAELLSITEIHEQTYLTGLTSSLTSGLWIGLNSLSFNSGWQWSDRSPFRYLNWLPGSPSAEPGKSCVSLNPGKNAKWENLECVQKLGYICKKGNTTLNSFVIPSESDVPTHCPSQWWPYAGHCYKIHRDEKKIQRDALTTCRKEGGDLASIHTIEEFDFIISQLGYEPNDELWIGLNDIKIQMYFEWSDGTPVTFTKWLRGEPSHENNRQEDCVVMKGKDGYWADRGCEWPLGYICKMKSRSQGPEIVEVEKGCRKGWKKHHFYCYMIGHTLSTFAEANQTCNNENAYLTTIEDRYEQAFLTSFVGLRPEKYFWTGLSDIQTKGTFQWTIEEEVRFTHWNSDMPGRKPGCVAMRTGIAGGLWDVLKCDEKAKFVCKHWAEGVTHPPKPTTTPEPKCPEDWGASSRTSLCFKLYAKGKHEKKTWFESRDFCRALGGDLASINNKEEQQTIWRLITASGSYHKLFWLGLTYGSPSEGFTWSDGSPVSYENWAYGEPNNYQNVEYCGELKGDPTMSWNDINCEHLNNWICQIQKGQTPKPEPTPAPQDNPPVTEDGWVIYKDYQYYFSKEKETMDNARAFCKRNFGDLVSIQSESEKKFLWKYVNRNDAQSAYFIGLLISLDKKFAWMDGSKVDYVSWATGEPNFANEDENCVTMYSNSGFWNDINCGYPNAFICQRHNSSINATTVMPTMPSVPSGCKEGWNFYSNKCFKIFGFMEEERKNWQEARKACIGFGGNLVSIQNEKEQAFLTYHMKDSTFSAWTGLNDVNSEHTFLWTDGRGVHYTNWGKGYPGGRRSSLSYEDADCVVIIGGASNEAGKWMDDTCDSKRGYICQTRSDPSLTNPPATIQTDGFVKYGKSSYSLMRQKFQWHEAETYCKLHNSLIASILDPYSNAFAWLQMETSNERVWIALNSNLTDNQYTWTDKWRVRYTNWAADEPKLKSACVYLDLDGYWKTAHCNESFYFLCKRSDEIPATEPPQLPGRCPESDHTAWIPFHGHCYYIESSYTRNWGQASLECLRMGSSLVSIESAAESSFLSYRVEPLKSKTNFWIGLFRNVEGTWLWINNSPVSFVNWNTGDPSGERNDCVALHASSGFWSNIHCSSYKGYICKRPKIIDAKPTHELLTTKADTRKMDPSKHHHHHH

T2: Recombinant mouse MMR (R&D systems) (mouse, UniProt Q61830 20-1388)
T2 construct: Antigen of the PE-ELISA and the SPR; also called mMMR; recombinant mMMR
T2 sequence: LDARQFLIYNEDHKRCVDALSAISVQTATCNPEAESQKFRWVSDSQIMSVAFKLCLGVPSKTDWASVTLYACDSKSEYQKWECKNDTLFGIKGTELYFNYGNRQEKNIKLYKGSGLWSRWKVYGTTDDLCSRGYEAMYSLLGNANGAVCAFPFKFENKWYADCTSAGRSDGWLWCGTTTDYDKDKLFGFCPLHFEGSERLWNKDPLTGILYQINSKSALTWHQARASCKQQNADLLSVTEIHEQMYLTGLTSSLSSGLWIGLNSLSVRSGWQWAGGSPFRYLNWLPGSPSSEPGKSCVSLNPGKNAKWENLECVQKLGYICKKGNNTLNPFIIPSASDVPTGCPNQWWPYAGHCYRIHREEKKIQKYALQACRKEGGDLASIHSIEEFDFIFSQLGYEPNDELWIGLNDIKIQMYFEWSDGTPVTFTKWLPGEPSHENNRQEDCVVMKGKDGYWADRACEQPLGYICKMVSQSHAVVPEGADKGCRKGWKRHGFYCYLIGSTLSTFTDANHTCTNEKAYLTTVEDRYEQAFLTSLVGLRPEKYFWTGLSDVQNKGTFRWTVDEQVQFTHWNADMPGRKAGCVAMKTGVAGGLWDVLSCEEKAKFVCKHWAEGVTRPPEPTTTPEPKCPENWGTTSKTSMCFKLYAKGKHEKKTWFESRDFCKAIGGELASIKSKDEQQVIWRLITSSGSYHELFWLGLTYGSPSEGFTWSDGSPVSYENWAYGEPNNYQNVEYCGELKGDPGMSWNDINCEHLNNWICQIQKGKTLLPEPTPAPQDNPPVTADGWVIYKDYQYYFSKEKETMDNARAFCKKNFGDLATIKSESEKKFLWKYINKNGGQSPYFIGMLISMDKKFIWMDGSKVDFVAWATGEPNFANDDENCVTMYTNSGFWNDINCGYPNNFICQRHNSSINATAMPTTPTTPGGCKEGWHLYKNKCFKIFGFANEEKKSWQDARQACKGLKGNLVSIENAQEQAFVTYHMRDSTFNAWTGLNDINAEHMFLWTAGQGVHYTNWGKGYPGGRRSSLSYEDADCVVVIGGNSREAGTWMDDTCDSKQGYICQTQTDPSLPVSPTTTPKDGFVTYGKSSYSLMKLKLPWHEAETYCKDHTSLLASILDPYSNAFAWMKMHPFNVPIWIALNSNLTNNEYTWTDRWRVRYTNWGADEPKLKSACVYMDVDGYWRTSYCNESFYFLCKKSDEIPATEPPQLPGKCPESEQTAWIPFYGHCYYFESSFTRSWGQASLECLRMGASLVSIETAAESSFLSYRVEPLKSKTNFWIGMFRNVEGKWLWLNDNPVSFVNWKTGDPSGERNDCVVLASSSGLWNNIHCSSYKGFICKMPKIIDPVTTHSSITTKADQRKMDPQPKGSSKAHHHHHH

B1: NbhmMMRm13.89 (VHH)
VHH: QVQLQESGGGLVQPGGSLRLSCAASGSIFSINAWGWYRQAPGKQRELVAEITSSGSTNYADSVKGRFTISGDNAKNSVYLHMNNLEPEDTAVYYCKAVAVTFTTPRSDYWGRGTQVTVSS
notes: Only tested as periplasmic extract in PE-ELISA; clone carries C-terminal HA and 6xHis tag
B2: NbhmMMRm25.86 (VHH)
VHH: QVQLQESGGGLVQPGGSLRLSCAGSGFTVSTSMINWARQVPGKELEWLVDVLPSGSTYYADPVKGRFTISRDNAQNTIYLQMNYLKPEDTAIYYCAINRETMPPFRGQGTQVTVSS
notes: as for B1
B3: NbhmMMRm18.63 (VHH)
VHH: QVQLQESGGGLVQPGGSLRLSCAPSGSIISINAMAWYRQAPGKERELVAAISSGGSTYYADSVKGRFTISGDIAKNLLWLQMNSLKPEDTAMYYCAPGGGWRPGAWGQGTQVTVSS
notes: as for B1
B4: NbhmMMRm8.67 (VHH)
VHH: QVQLQESGGGLVQAGDSLRLSCLATGSMFSINAWGWYRQAPGKQRELVASITSGGGSTEYAESVKGRFTISRDSAKNMLYLQMNSLRPEDTAVYYCNAERWDGYALGYSPNHGSGHRPYNYWGQGTQVTVSS
notes: as for B1
B5: NbhmMMRm27.95 (VHH)
VHH: QVQLQESGGRLGAAGGSLRLSCTASGFPFNIYPMSWVRQAPGKGFEWVSYISHGGTTTDYSDAVKGRFTISRDNAKNRLYLQMDSLKPEDTAVYFCAQGYARLMTDSELVRGQGTQVTVSS
notes: as for B1

Each binder was assayed against T1, Recombinant human MMR (R&D systems) (assay: PE-ELISA: periplasmic extract of the clone on plate-coated human MMR, OD405; background = irrelevant milk-blocking proteins).
Protocol: (§1) Specific sdAb phages were enriched by several consecutive rounds of in vitro selection on antigen coated to wells of microtiter plates (Nunc). For isolation of human/mouse MMR cross-reactive Nbs, screening was performed using human and mouse MMR alternatingly. Bound phage particles were eluted with 100 mM triethylamine (pH 11.0), immediately neutralized with 1 M Tris-HCl (pH 7.4) and used to infect E. coli TG1 cells. Individual colonies were picked and expression of recombinant sdAb-M13 protein III by addition of 1 mM isopropyl-β-D-thiogalac-topyranoside (IPTG). The periplasmic extract of each clone was subsequently tested in ELISA for human MMR recognition with non-specific antigen coated wells serving as a negative control. Human/mouse MMR cross-reactive Nbs were also screened in a similar fashion against mouse MMR, only clones reactive with both human and mouse antigens were withheld as cross-reactive Nbs. Each ELISA was performed on plates coated with 1 μg/ml MMR in 100 mM NaHCO₃ buffer pH=8.8. After coating the plates are washed with PBS+0.05% TWEEN®-20 (PBST) and blocked for 2 hours with PBS+0.05% TWEEN® 20+2% non-fat dry milk powder (Nestle) (PBSM). The PE extracts are then incubated for 1 hour on the plate and then washed with PBST followed by 1 hour incubation of 0.5 μg/ml mouse anti-HA tag antibody (16B12, Covance) in PBSM. After washing with PBST, 1.5 μg/ml alkaline phosphatase conjugated anti-mouse antibody (Sigma) in PBSM in added to the plate for 1 hour followed by PBST washing. Finally, the ELISA is developed using 2 mg/ml alkaline phosphatase substrate (Sigma) in AP-buffer (100 mM NaCl, 50 mM MgCl₂, 100 mM Tris pH=9.5) and the optical density signal at 405 nm is measured.
(§2) Next, anti-human/mouse MMR cross-reactive sdAbs were generated (see also Material and Method section). The anti-human/anti mouse MMR phage bank was alternatingly screened on human and mouse MMR for a total of four rounds, resulting in up to 100-fold enrichments for hMMR/mMMR reactive phages from the second panning round. Therefore, 188 colonies from the second and third rounds were selected for PE-expression. These PE-extracts were used in PE-ELISAs to determine which clones react effectively to MMR, clones were selected after the ELISA on hMMR (FIG. 2). These clones were then screened for binding on mouse MMR (FIG. 3).

binding result	Binder
binds	B1
binds	B2
binds	B3
binds	B4
binds	B5

These binders were tested against T2, Recombinant mouse MMR (R&D systems) (assay: PE-ELISA: periplasmic extract of the clone on plate-coated mouse MMR, OD405; background = irrelevant milk-blocking proteins).
Protocol: as §1, §2

binding result	Binder
binds	B1
binds	B2
binds	B3
binds	B4
binds	B5
